Target: rpod_ecoli rpoD (UniProt P00579)
Sequence (P00579 whole entry): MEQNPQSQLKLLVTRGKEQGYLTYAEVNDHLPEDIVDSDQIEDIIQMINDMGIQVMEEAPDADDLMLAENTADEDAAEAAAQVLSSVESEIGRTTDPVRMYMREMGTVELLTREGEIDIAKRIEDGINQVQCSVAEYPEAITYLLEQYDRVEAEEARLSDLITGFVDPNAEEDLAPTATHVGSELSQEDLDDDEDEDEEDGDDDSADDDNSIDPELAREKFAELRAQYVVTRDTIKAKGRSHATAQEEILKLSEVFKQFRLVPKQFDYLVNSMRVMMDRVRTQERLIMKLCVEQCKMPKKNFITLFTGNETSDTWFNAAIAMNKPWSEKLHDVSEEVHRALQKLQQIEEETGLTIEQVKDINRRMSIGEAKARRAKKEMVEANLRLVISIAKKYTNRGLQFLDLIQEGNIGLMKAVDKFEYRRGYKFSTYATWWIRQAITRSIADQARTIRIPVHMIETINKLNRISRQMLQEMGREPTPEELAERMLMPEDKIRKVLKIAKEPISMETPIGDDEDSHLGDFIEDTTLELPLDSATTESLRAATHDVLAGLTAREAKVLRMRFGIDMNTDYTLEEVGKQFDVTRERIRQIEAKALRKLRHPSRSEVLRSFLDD

effect of a mutation on the interaction | Substance
decreasing interaction | DNA-directed RNA polymerase subunit beta' (Escherichia coli (strain K12)) (from UniProt P0A8T7) E295K
decreasing interaction | DNA-directed RNA polymerase subunit beta' (Escherichia coli (strain K12)) (from UniProt P0A8T7) R293Q
increasing interaction | DNA-directed RNA polymerase subunit beta' (Escherichia coli (strain K12)) (from UniProt P0A8T7) N309D
decreasing interaction | DNA-directed RNA polymerase subunit beta' (Escherichia coli (strain K12)) (from UniProt P0A8T7) R297S
decreasing interaction | DNA-directed RNA polymerase subunit beta' (Escherichia coli (strain K12)) (from UniProt P0A8T7) A302D
increasing interaction | DNA-directed RNA polymerase subunit beta' (Escherichia coli (strain K12)) (from UniProt P0A8T7) Q300E
decreasing interaction | DNA-directed RNA polymerase subunit beta' (Escherichia coli (strain K12)) (from UniProt P0A8T7) R275Q

From IntAct's records for PubMed 10764785
